Experimental findings from US20190359693A1 (Janssen / Centocor, published 2019) are described below.

In assay [1] the target is HA of H1N1 A/Puerto Rico/8/34-MA (influenza A virus). Description: cell-based or functional assay.
Assay [2] addresses HA of H1N1 A/Brisbane/59/07 (influenza A virus). Description: cell-based or functional assay.
Assay [3] concerns the target HA of H3N2 A/HK/1/68-MA (influenza A virus). Briefly: cell-based or functional assay.
Assay [4] concerns the target HA of H7N7 A/PR8 H7N7-NY (influenza A virus). Description: cell-based or functional assay.
Assay [5] deals with HA of H10N7 A/Chick/Germany/N/49 (influenza A virus). Briefly: cell-based or functional assay.
Assay [6] deals with HA of H3N2 A/HK/1/68-MA (influenza A virus). Briefly: cell-based or functional assay. This is another data set of the same source.
Assay [7] concerns the target HA of H3N2 A/Panama/2007/99 (influenza A virus). Description: cell-based or functional assay.
Assay [8] has as its target HA of H4 A/WF/HK/MPA892/06 (influenza A virus). Briefly: cell-based or functional assay.
The target in assay [9] is T1, HA of H3N2 A/HK/1/68 (influenza A virus, UniProt Q91MA7 17-530). Briefly: BLI (Octet).
Assay [10] has as its target HA of H2N2 A/WF/HK/MPU3156/05 (influenza A virus). Description: cell-based or functional assay.
In assay [11] the target is HA of H2N2 A/Guiyang/1/57 (influenza A virus). Briefly: cell-based or functional assay.
For assay [12], the target named is T2, HA of B/Lee/40 (influenza B virus, UniProt P03460 16-552). Briefly: cell-based or functional assay.
Assay [13] addresses HA of H5N1 A/Vietnam/1194/04 (influenza A virus). Description: cell-based or functional assay.
The target of assay [14] is HA of B/Harbin/7/94 (Yamagata) (influenza B virus). Description: cell-based or functional assay.
In assay [15] the target is HA of B/Malaysia/2506/04 (Victoria) (influenza B virus). Description: cell-based or functional assay.
Assay [16] has as its target T2, HA of B/Lee/40. Description: cell-based or functional assay. The source holds these as a separate data set.
Assay [17] addresses HA of B/Harbin/7/94 (Yamagata) (influenza B virus). Description: cell-based or functional assay. The source holds these as a separate data set.
Assay [18] has as its target HA of H3N2 A/Brisbane/10/2007 (influenza A virus). Briefly: cell-based or functional assay.
In assay [19] the target is HA of H5N1 A/Vietnam/1194/04 (influenza A virus). Briefly: cell-based or functional assay. This is another data set of the same source.
The target of assay [20] is HA of H7N7 A/PR8 H7N7-NY (influenza A virus). Description: cell-based or functional assay. The source holds these as a separate data set.
In assay [21] the target is HA of H10N7 A/Chick/Germany/N/49 (influenza A virus). Description: cell-based or functional assay. This is another data set of the same source.
The target of assay [22] is T1, HA of H3N2 A/HK/1/68. Briefly: cell-based or functional assay.
Assay [23] has as its target HA of H4 A/WF/HK/MPA892/06 (influenza A virus). Description: cell-based or functional assay. This is another data set of the same source.

Like-named read-outs stand apart in the source and are kept apart here.

B1: SD1047 (VHH)
VHH: EVQLVESGGGLVQAGGSLRISCAASGRTYAMAWFRQAPGKEREFVAHINALGTRTYYSDSVKDRFTISRDNAKNTEYLQMNSLKPEDTAVYYCVAGGQWRAAPVAAAESYDFWGQGTQVTVSS
For the molecule B1, the VNA titer (in assay [1]; in [2]; in the assay with HA of H3N2 A/HK/1/68-MA [3]) was more than 1000 nM in each case.

B2: SD1016 (VHH)
VHH: EVQLVESGGGLVQAGGSLRLSCVASGMFFGIAAMGWYRQAPGKQRELVANITSDFSTNYADSVKDRFTISRDNAENTVYLQMNSLKPEDTAVYYCAADSLGTGWRHYYYWGQGTQVTVSS
notes: llama sdAb
In the case of B2, the VNA titer (in the assay with HA of H7N7 A/PR8 H7N7-NY [4]; in [5]; in the assay with HA of H3N2 A/HK/1/68-MA [6]; in [7]; in [8]) was more than 1000 nM each time. For the same molecule, the binding result with HA of H3N2 A/HK/1/68 [9] is listed as “no binding (tested: HA 20 µg/mL)”.

B3: SD1076 (VHH)
VHH: EVQLVESGGGLVQAGGSLTLSCAGSGFAFSIATMGWYRQAPGKQRELVADITSGGSTNYADSVKGRFTISRDNAKNTVYLQMNSLKPEDTAVYYCNADSLATGWRQYSYWGKGTQVTVSS
notes: llama sdAb
For the molecule B3, the VNA titer in assay [5] was more than 1000 nM; in assay [10] it was 38.5 nM; with HA of H3N2 A/HK/1/68-MA [6], more than 1000 nM; in [11], more than 1000 nM; in assay [8], more than 1000 nM. In addition, the binding result with HA of H3N2 A/HK/1/68 [9] is recorded as “no binding (tested: HA 20 µg/mL)”.

B4: SD1083 (VHH)
VHH: EVQLVESGGGLVQPGGSLRLSCAATGFTLENKAIGWFRQTPGSEREGVLCISKSGSWTYYTDSMRGRFTISRDNAENTVYLQMDSLKPEDTAVYYCATTTAGGGLCWDGTTFSRLASSWGQGTQVTVSS
As to B4, the hemagglutination inhibition titer (with HA of B/Lee/40 [12]; in [13]; in assay [14]) was more than 50 µg/mL in each case. The figures for the VNA titer (in assay [15]; with HA of B/Lee/40 [16]; in assay [17]) were 294 nM, 217 nM and 259 nM, respectively.

B5: SD1035 (VHH)
VHH: EVQLVESGGGLVQAGGTLRLSCAASGSAVSISRMAWYRQAPGKQRELVADIFSGGGTNYADSVKGRFTISRDNAKNTVDLQMNSLKPEDTAVYYCSARSAVAAIHWDQYDYWGQGTQVTVSS
notes: llama sdAb
On to B5, for which the VNA titer in assay [18] and in [19] was more than 1000 nM in each case. Further, the binding result in the assay with HA of H3N2 A/HK/1/68 [9] was “no binding (tested: HA 20 µg/mL)”.

B6: SD1087 (VHH)
VHH: EVQLVESGGGLVQPGGSLRLSCVISGLSLDTYAVGWFRQAPGKEREGITCISSGHGMTYYADSVKGRFTVSTDNAKNTVYLQMNGLQPEDTARYYCATESRYYCSDNWPAPQRYIYWGQGTQVTVSS
With B6, the hemagglutination inhibition titer (in the assay with HA of B/Lee/40 [12]; in [13]; in assay [14]) was more than 50 µg/mL each time. Moreover, the figures for the VNA titer (in assay [15]; in the assay with HA of B/Lee/40 [16]; in [17]) were 79.1 nM, 6.5 nM and 503 nM, respectively.

B7: SD1045 (VHH)
VHH: EVQLVESGGGLVQAGGSLRLSCAASGSSFSINVMGWYRQAPGKQREMVATITYGGSTNYVDSVKGRFTISRDNAKNTVYLQMNSLKPEDTAVYYCNSRLAQINYWGQGTQVTVSS
notes: llama sdAb
For B7, the VNA titer in the assay with HA of H7N7 A/PR8 H7N7-NY [20] is more than 1000 nM; in assay [21], 985 nM; with HA of H3N2 A/HK/1/68 [22], more than 1000 nM; in assay [23], 492 nM. In the assay with HA of H3N2 A/HK/1/68 [9], the binding result is “no binding (tested: HA 20 µg/mL)”.
